Data published in a protein production outcome set (Wang et al. 2014).

Assay: label from the status in PepcDB records
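Also: failed if final PepcDB status was selected cloned or expressed and not failed if soluble or beyond.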

| Sequence | protein production |
| --- | --- |
| MAKRIFLFILTNILVLTTIGIVLSVLSSVTGVGTYFTADGGIDPMALLVFSLVVGFVGSFTSLAISRWMAKTMMGVRVLNPKKHSLSYEEQQLVDRVHRLSRSAGLTKMPEVGIYRSPEVNAFATGPSKRRSLVAVSSGLLEQMDDAAVEGVLAHEVAHITNGDMVTMTLLQGIVNTFVVFLSRIAAWIASRFVKEDLAPIVHFIAMIIFQIVFSILGSLVVFAYSRHREFHADRGGADLAGKDKMIHALRTLKSYSSRILEDDQTAVQTLKINGKKRSSLFSTHPDLDERIRRLEAK | failed |
| MAKSKSSQGASGARRKPAPSLYQHISSFKPQFSTRVDDVLHFSKTLTWRSEIIPDKSKGTLTTSLLYSQGSDIYEIDTTLPLKTFYDDDDDDDNDDDDEEGNGKTKSAATPNPEYGDAFQDVEGKPLRPKWIYQGETVAKMQYLESSDDSTAIAMSKNGSLAWFRDEIKVPVHIVQEMMGPATRYSSIHSLTRPGSLAVSDFDVSTNMDTVVKSQSNGYEEDSILKIIDNSDRPGDILRTVHVPGTNVAHSVRFFNNHLFASCSDDNILRFWDTRTADKPLWTLSEPKNGRLTSFDSSQVTENLFVTGFSTGVIKLWDARAVQLATTDLTHRQNGEEPIQNEIAKLFHSGGDSVVDILFSQTSATEFVTVGGTGNVYHWDMEYSFSRNDDDNEDEVRVAAPEELQGQCLKFFHTGGTRRSSNQFGKRNTVALHPVINDFVGTVDSDSLVTAYKPFLASDFIGRGYDD | failed |
| MAKSWCTVLERPATRAARSLAIKRSEKGEMLVSGLPYLSAVDDVTLMLRDGDLMGSFVVEGINAETVDSFHTVELCNAFSRFIAQQRSDVAYYVHRISVETRPTMPPVGGHPFNEEIDRRWQGYLQTVGLRDRVTVVTLVIRPPRKTTKFLSLFGGRDVHSRHEVEARALRLDQMINTCMVGVGEAGPSRLTVSDGRWLGLLRTLIDGSGGSLIPGTKFLPVADLLASSQITFQGPVFECEGTDPARRRFGTIVSVKDYPAETYPGILDRLNLPYNTVVTQSFTPIDPISAQGKIARVRKQMRAAEDAAISLMAQLEEAEDDVASGRVIFGDHHCSVAVFCDSLKELDGAMAYVTRAMQDAGAAIVRENFSSRVVYFAQHPGNFAYRTRPAMISSQNFAQLCAMHGQSKGSPPDKCPWGDAVTIFPTARGETFRFNFHLPGKPGQRTVGHTLVLGQTGSGKTLGTAFLISQAQRLGARTILFDKDNGFEMAVRAMGGCYSAVRMGDETGFNPMRAEADSRGAAWLMDWLAALAENDGGKLNPVQIQALSDAVQANTTADPRLQNLEQFRSQLRATDDDGDLYNRLGRWDETGQFGWLFGGKGLDPLAFDNRLTAFDLTEIFDNDVVRTAWLSYVFRRVERLVEDEHPTLLVLDEAWKLLDNPYFEARLKDWMLTMRKKNVAVVLLTQRVSHIKNSAAGDAILESAVTRLVYTSSFNTAAELAPLHLTPTESAFLQMSNVDNHLVLLKSGSDSVVLDFDLVAIGKGIDVLGGGRGQKAIAGWRDRPDFQMEMLHLEHHHHHH | failed |
| MAKVVKLEPISRETTVNTNDNLLSALLDSELHVLKECGGRGMCATCHVYIKEGMESLSPINKREQRTLEVITTANATSRLACQARVLGPGVVVELPSG | failed |
| MALAFDEFGRPFIILREQDQKTRLKGIDAQKANISAGKAVARILRSSLGPKGMEKKCFKDLTEMSPYVSFFLLNLISLRSIPMALALNSGLQPIETLSAVKSQQIKRRTFHSTGLIATM | failed |
| MALCGRPARQRSSAGQRYLAVAPARCDHWSPPSVRRVPVGRVGFYPAPVINRDAGGRASMTSQRGFWDRMAERYAARPIKDVAAYEAMLADAAGRLSPSDRVLEIGCGTGGTAIRLAPGVAQWTATDLSPEMVRIASAKPAPPNLSFVVADADLSTGEPPYDAVCAFLILHLVDDIRTTLSAIRDWLKPGGLLLSKTYCIGDMNPALRWGVIPVLQRIGWVPPIKSLMSQQLRAAIAEAGFEIEASRTFGSNSHAHYIVARKPA | failed |
| MALDNAKTSQKLQSLAELDGKAPSHRNLNVQTWSTAEGAKVLFVEARELPMFDLRLIFAAGSSQDGNAPGVALLTNAMLNEGVAGKDVGAIAQGFEGLGADFGNGAYKDMAVASLRSLSAVDKREPALKLFAEVVGKPTFPADSLARIKNQMLAGFEYQKQNPGKLASLELMKRLYGTHPYAHASDGDAKSIPPITLAQLKAFHAKAYAAGNVVIALVGDLSRSDAEAIAAQVSAALPKGPALAKIEQPAEPKASIGHIEFPSSQTSLMLAQLGIDRDDPDYAAVSLGNQILGGGGFGTRLMSEVREKRGLTYGVYSGFTPMQARGPFMINLQTRAEMSEGTLKLVQDVFAEYLKNGPTQKELDDAKRELAGSFPLSTASNADIVGQLGAMGFYNLPLSYLEDFMRQSQELTVEQVKAAMNKHLNVDKMVIVSAGPTVAQKPLEHHHHHH | failed |
| MALDRIEAMRAFCRIVELGSFTRAADSLGVASTTLSGQIQVLERLLDIRLLHRSTRKVHPTNEGLAYYQRARKVIEDIDDLEASVSISRAVVKGRVAVEMPTPVGIHLVIPALHGFTERYPHIHLDIGCSERVVGLMQEGIDCAIRGGDIADQDLIARRVGQMRFCLCAAPAYLDAHPAITHPAQLARHRHLGFRFPGTGKRFVATLRKQRDSHPLDHPPHVYFNNGTAVTAGAAAGLGIAALPRAEVRHLLEAGALREILPDWTLTSMPMSVVYPQTHQLSARVQVFVQWVAELFEGDGLWKDA | failed |
| MALGHRCRRFGTDKITSRPLRRQPQENPMNIKQLITAALIASAAFATQAAPQKPVSAAQTAQHSAVWIDVRSEQEFSEGHLHNAVNIPVDQIVRRIYEAAPDKDTPVNLYCRSGRRAEAALQELKKAGYTNVANHGGYEDLLKKGMK | failed |
| MALIVQKFGGTSVGTVERIEQVAEKVKKFREAGDDVVVVVSAMSGETNRLIGLANQIMEQPVPRELDVMVSTGEQVTIALLSMALIKRGVPAVSYTGNQVRILTDSAHTKARILHIDDTHIRADLKAGRVVVVAGFQGVDGNGNITTLGRGGSDTTGVALAAALKADECQIYTDVDGVYTTDPRVVPQARRLDKITFEEMLEMASLGSKVLQIRAVEFAGKYNVPLRVLHSFQEGPGTLITIDDEEESMEQPIISGIAFNRDEAKLTIRGVPDTPGVAFKILGPISAANVEVDMIVQNVAHDNTTDFTFTVHRNDYLNALEILKQTAANIGAREAIGDTNIAKVSIVGVGMRSHAGVASRMFEALAKESINIQMISTSEIKVSVVIEEKYLELAVRALHTAFELDAPARQG | failed |
| MALKDYALEKEKVKKFLQEFYQDDELGKKQFKYGNQLVRLAHREQVALYVDLDDVAEDDPELVDSICENARRYAKLFADAVQELLPQYKEREVVNKDVLDVYIEHRLMMEQRSRDPGMVRSPQNQYPAELMRRFELYFQGPSSNKPRVIREVRADSVGKLVTVRGIVTRVSEVKPKMVVATYTCDQCGAETYQPIQSPTFMPLIMCPSQECQTNRSGGRLYLQTRGSRFIKFQEMKMQEHSDQVPVGNIPRSITVLVEGENTRIAQPGDHVSVTGIFLPILRTGFRQVVQGLLSETYLEAHRIVKMNKSEDDESGAGELTREELRQIAEEDFYEKLAASIAPEIYG | failed |
| MALKLGVIGTGAIGQDHIRRCSKTLVGSQVVAVTDINLEQAANVVRDLGIGAEVYADGHALIAAPDVEAVLVCSWGPSHEEYVLAAIAAGKPVFCEKPLAVTAEGCRHIVEAEIASGRRLVQVGFMRPYDQGYRALKSVIDSGQIGEPLMLHCAHRNPRVGENYKTDMAITDTLIHELNVLRWLLNDDYVSVQVVFPRKSGKALAHMKDPQIVMLETARGTRIDVEVFVNCQYGYDIQCEVVGESGIARLPEPSQVQLRREAKLSNAILMDWKDRFIAAYDVELQDFIDGVKAGTIYGPSAWDGYAAAVAADACVLAQNNGAVVPITLAMRPAFYA | failed |
| MALKYPSGKEYRGNKPNAARRPAADYANRGMTLEDDLNATNEYYRERGIAVIHKKPTPVQIVRVDYPKRSAAVITEAYFRQASTTDYNGVYRGKYIDFEAKETKNKTAFPLKNFHAHQIRHMEQVVAHGGICFAILRFSLLNETYLLDASHLIAWWNKQEAGGRKSIPKQEIERHGHSIPLGYQPRIDYISVVDNVYFTR | not failed |
